Results as given in patent US20200123252A1 (LAMKAP BIO BETA, published 2020).

T1: human CEACAM5 on MKN-45 cells (human, UniProt P06731 35-685)
T1 construct: Endogenous CEACAM5 on MKN-45 gastric adenocarcinoma cells, which also carry CD47 (and CEACAM6); also called CD66e; MKN45 CEA+ cancer cells
T1 sequence: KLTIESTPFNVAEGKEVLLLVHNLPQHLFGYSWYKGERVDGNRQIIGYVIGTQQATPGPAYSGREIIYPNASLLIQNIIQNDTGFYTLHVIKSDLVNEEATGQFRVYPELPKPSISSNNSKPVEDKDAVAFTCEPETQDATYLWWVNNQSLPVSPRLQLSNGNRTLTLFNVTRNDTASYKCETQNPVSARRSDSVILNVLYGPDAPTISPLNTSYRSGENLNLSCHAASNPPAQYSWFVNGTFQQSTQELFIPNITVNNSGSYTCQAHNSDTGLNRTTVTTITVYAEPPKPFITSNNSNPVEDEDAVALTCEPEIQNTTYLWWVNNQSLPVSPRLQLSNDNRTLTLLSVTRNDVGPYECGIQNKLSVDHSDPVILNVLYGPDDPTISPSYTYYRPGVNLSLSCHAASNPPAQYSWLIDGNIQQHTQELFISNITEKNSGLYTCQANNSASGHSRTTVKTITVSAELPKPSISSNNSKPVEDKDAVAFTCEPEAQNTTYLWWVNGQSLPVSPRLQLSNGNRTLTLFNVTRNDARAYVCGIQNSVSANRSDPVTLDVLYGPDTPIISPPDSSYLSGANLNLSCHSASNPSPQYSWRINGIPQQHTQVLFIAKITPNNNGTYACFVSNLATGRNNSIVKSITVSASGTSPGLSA

T2: human CEACAM6 (human, UniProt P40199 35-320)
T2 construct: also called CD66c; biotinylated recombinant human CEACAM6
T2 sequence (looked up): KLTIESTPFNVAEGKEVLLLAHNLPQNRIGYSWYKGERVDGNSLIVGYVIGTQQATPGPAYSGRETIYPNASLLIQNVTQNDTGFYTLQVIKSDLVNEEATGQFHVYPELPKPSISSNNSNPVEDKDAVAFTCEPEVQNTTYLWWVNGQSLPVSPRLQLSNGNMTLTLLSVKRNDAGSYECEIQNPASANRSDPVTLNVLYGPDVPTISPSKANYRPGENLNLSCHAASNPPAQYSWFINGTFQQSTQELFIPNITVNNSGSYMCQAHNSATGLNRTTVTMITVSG

T3: shed CEA (soluble CEA) (human, UniProt P06731 35-685, limits assumed)
T3 sequence (looked up): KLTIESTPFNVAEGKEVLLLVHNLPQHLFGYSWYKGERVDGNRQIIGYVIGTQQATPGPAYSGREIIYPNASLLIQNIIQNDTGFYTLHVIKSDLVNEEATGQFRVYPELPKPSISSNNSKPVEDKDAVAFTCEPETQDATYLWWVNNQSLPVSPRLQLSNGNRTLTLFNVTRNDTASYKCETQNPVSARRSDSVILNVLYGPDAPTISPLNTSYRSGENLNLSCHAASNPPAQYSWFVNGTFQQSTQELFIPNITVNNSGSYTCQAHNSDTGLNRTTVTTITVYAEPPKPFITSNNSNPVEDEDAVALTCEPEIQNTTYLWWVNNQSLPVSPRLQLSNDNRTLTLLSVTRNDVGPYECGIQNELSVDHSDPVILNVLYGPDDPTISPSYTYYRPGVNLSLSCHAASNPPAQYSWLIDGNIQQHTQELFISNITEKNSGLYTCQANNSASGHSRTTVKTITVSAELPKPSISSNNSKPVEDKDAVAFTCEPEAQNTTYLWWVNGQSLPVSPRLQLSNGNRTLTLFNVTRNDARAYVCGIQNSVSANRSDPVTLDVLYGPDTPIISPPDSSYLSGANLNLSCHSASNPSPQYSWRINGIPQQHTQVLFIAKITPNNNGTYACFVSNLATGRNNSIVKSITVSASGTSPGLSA


Key:
[1] = target: T4, human CD47 on MKN45 cells (human, UniProt Q08722 19-323); experiment: inhibition of SIRPα-mouseFc binding to CD47 on MKN45 cells, imaging (CX5)
T4 construct: whole, on cells; also called IAP
From the text: The detection of bound SIRPα cell-based assay monitoring the interaction of soluble SIRPα with human CD47 expressed at the surface of MKN45 is used for the detection of the blocking activity. Dose-response experiments with bispecific antibodies according to the invention allow determination of an IC50 value.
MKN45 cancer cells, expressing both CD47 and CEACAM5, are stained with CFSE violet to allow the imaging system (CX5) to detect the cells. Briefly, 3,000 stained MKN45 cells per well are seeded in a 384 optical well plate (Costar) and incubated for 50 minutes with increased concentrations of bispecific antibodies of the invention (1.9 pM to 333 nM, in quadruplicates). Then, a fixe concentration of SIRPα-mouseFc premixed with anti-mouse IgG-Fc AF647 coupled antibody (Jackson Immunoresearch diluted 1:2000) is added at 50 ng/mL final. After an incubation of 3H30 plates are acquired with the imaging system (CX5, Thermofisher) and fluorescence signals emitted by the detected bound SIRPα is recorded by the software dedicated to the imaging system. Fluorescence signals are plotted according to the dose range tested and IC50 are calculated by the software (Prism, Graphpad).

[2] = target: T1, human CEACAM5 on MKN-45 cells; experiment: flow cytometry on MKN45 CEA+ cells (carry CEACAM5 and CD47)
[3] = target: T1, human CEACAM5 on MKN-45 cells; experiment: FACS binding to MKN-45 cells, which express CD47, CEACAM5 and CEACAM6; K2AC39 is cross-reactive to CEACAM6
[4] = target: T2, human CEACAM6; experiment: ELISA on biotinylated recombinant human CEACAM6 captured on streptavidin, bivalent mAb
Method: Biotinylated recombinant human CEACAM5 or CEACAM6 proteins are captured at 0.5 μg/mL in a streptavidin coated 96-well microplate. The plate is washed and monoclonal anti-CEA bivalent antibodies of the present invention are added as a broad concentration-range (e.g. from […] to 1 μg/mL) and incubated during 1 hr. The plate is washed and bound antibodies are detected with an anti-human IgG(Fc)-HRP (Jackson ImmunoResearch). […] The fluorescence signal is measured on a Synergy HT plate reader (Biotek).

[5] = target: T1, human CEACAM5 on MKN-45 cells; experiment: binding to MKN-45 cells (MFI), without shed CEA
[6] = target: T1, human CEACAM5 on MKN-45 cells; experiment: binding to MKN-45 cells (MFI), in the presence of 200 ng/mL shed CEA
[7] = target: T3, shed CEA (soluble CEA); experiment: cell-based or functional assay
[8] = target: T1, human CEACAM5 on MKN-45 cells; experiment: flow cytometry on MKN45 CEA+ cells (carry CEACAM5 and CD47); MKN45 CEA+ cancer cells

Row | Binder | IC50 [1] [nM] | EC50 [2] [nM] | further results
1 | K2AC18 CEA×CD47 bispecific antibody (bispecific antibody, human IgG1, kappa, lambda, κλ body, human IgG1, common heavy chain; CEACAM5 arm light chain 1A2 (AC18)) heavy: not shown light 1: SYVLTQPPSVSVAPGKTARITCGGNGIGDASVHWYQQKPGQAPVLVIYSTTTRPSGIPERFSGSNSGNTATLTISRVEAGDEADYYCQVWDGFGPRHRAVFGGGTKLTVLGQPKAAPSVTLFPPSSEELQANKATLVCLISDFYPGAVTVAWKADSSPVKAGVETTTPSKQSNNKYAASSYLSLTPEQWKSHRSYSCQVTHEGSTVEKTVAPTECS light 2: not shown | 7 | 132 | 
2 | K2AC27 CEA×CD47 bispecific antibody (bispecific antibody, human IgG1, kappa, lambda, κλ body, human IgG1, common heavy chain; CEACAM5 arm light chain 2C11 (AC27)) heavy: not shown light 1: QSVLTQPPSVSGAPGQRVTISCTGSSSNIGYADKVHWYQQLPGTAPKLLIYNNSDRPSGVPDRFSGSKSGTSASLAITGLQAEDEADYYCQSYDGYNMLTAVFGGGTKLTVLGQPKAAPSVTLFPPSSEELQANKATLVCLISDFYPGAVTVAWKADSSPVKAGVETTTPSKQSNNKYAASSYLSLTPEQWKSHRSYSCQVTHEGSTVEKTVAPTECS light 2: not shown | 0.86 | 12.5 | 
3 | K2AC28 CEA×CD47 bispecific antibody (bispecific antibody, human IgG1, kappa, lambda, κλ body, human IgG1, common heavy chain; CEACAM5 arm light chain C11 (AC28)) heavy: not shown light 1: NFMLTQPHSVSESPGKTVTISCTRSSGSINDITVHWYQQRPGSSPTTVIYGYNARPSGVPDRFSGSIDSSSNSASLTISGLKTEDEADYYCQSWDGHGSAYVFGGGTKLTVLGQPKAAPSVTLFPPSSEELQANKATLVCLISDFYPGAVTVAWKADSSPVKAGVETTTPSKQSNNKYAASSYLSLTPEQWKSHRSYSCQVTHEGSTVEKTVAPTECS light 2: not shown | 0.95 | 52.5 | 
4 | K2AC39 CD47×CEA bispecific antibody (bispecific antibody, human IgG1, kappa, lambda, κλ body with common heavy chain; CEACAM5/CEACAM6 arm light chain 1B2 (AC39)) heavy: not shown light 1: QSVLTQPPSVSAAPGQKVTISCSGSSSEITASGVSWYQQLPGTAPKLLIYDNNKRPSGIPDRFSGSKSGTSATLGITGLQTGDEADYYCGTWDFPPSRFVFGGGTKLTVLGQPKAAPSVTLFPPSSEELQANKATLVCLISDFYPGAVTVAWKADSSPVKAGVETTTPSKQSNNKYAASSYLSLTPEQWKSHRSYSCQVTHEGSTVEKTVAPTECS light 2: not shown |  |  | EC50 (read off the curve) [3]: ~3 µg/mL
5 | AC22 anti-CEA bivalent monoclonal antibody (antibody, human IgG1, lambda, V domains shown, also called 1G6; anti-CEA bivalent mAb of K2AC22) VH: not shown VL: QSVLTQPPSVSAAPGQKVTISCSGSSSNIANGIVSWYQQLPGTAPKLLIYFDNLRPSGIPDRFSGSKSGTSATLGITGLQTGDEADYYCGTWDFSYGIVFGGGTKLTVLG |  |  | binding result [4]: no binding
6 | K2AC26 CEA×CD47 bispecific antibody (bispecific antibody, human IgG1, kappa, lambda, κλ body, human IgG1, common heavy chain; CEACAM5 arm light chain 2F7 (AC26)) heavy: not shown light 1: QSALTQPASVSGSPGQSITISCTGTSSDVKYANAVSWYQQHPGKAPKLMIYSNSIRPSGVSNRFSGSKSGNTASLTISGLQAEDEADYYCSSYDPRGNLLIRVFGGGTKLTVLGQPKAAPSVTLFPPSSEELQANKATLVCLISDFYPGAVTVAWKADSSPVKAGVETTTPSKQSNNKYAASSYLSLTPEQWKSHRSYSCQVTHEGSTVEKTVAPTECS light 2: not shown | 0.32 | 12.7 | 
7 | K2AC13 CEA×CD47 bispecific antibody (bispecific antibody, human IgG1, kappa, lambda, κλ body, human IgG1, common heavy chain; CEACAM5 arm light chain 2B8 (AC13)) heavy: not shown light 1: QSALTQPASVSGSPGQSITISCTGTSSNVRYAAGVSWYQQHPGKAPKLMIYEVSNRPSGVSNRFSGSKSGNTASLTISGLQAEDEADYYCSSWDFEHGPAAKVFGGGTKLTVLGQPKAAPSVTLFPPSSEELQANKATLVCLISDFYPGAVTVAWKADSSPVKAGVETTTPSKQSNNKYAASSYLSLTPEQWKSHRSYSCQVTHEGSTVEKTVAPTECS light 2: not shown | 4 | 190 | 

Now from value to binder, other results behind:

Row | IC50 [1] [nM] | EC50 [2] [nM] | Binder | further results
8 | 0.22 | 13 | K2AC25 CEA×CD47 bispecific antibody (bispecific antibody, human IgG1, kappa, lambda, κλ body, human IgG1, common heavy chain; CEACAM5 arm light chain 2F4 (AC25)) heavy: not shown light 1: QSVLTQPPSVSAAPGQKVTISCSGSSSNIGITPVSWYQQLPGTAPKLLIYSNNFRPSGIPDRFSGSKSGTSATLGITGLQTGDEADYYCGTWDRTGHEIRPVFGGGTKLTVLGQPKAAPSVTLFPPSSEELQANKATLVCLISDFYPGAVTVAWKADSSPVKAGVETTTPSKQSNNKYAASSYLSLTPEQWKSHRSYSCQVTHEGSTVEKTVAPTECS light 2: not shown | 
9 | 0.22 | 1.15 | K2AC10 CEA×CD47 bispecific antibody (bispecific antibody, human IgG1, kappa, lambda, κλ body, human IgG1, common heavy chain; CEACAM5 arm light chain 1D5 (AC10)) heavy: not shown light 1: QSVLTQPPSVSGAPGQRVTISCTGSSSNIYANSNVHWYQQLPGTAPKLLIYSGSNRPSGVPDRFSGSKSGTSASLAITGLQAEDEADYYCQSYDPAHNLLTAVFGGGTKLTVLGQPKAAPSVTLFPPSSEELQANKATLVCLISDFYPGAVTVAWKADSSPVKAGVETTTPSKQSNNKYAASSYLSLTPEQWKSHRSYSCQVTHEGSTVEKTVAPTECS light 2: not shown | 
10 | 0.4 |  | K2AC5 CEA×CD47 bispecific antibody (bispecific antibody, human IgG1, kappa, lambda, κλ body, human IgG1, common heavy chain; CEACAM5 arm light chain 1D9 (AC5) with lambda constant domain, CD47 arm kappa light chain KA3 (K2); also called CD47×CEA bispecific antibody K2AC5) heavy: not shown light 1: QSVLTQPPSVSAAPGQKVTISCSGSSSNIGYGLVSWYQQLPGTAPKLLIYAGNLRPSGIPDRFSGSKSGTSATLGITGLQTGDEADYYCGTWDFNYGVVFGGGTKLTVLGQPKAAPSVTLFPPSSEELQANKATLVCLISDFYPGAVTVAWKADSSPVKAGVETTTPSKQSNNKYAASSYLSLTPEQWKSHRSYSCQVTHEGSTVEKTVAPTECS light 2: not shown | EC50 (read off the curve) [5]: ~0.3 µg/mL; EC50 (read off the curve) [6]: ~0.3 µg/mL; shift of EC50 of the phagocytosis index curve of MKN-45 cells by 200 ng/mL shed CEA [7]: < 4 fold; EC50 [8]: 11.3 nM
11 | 0.72 | 14.5 | K2AC29 CEA×CD47 bispecific antibody (bispecific antibody, human IgG1, kappa, lambda, κλ body, human IgG1, common heavy chain; CEACAM5 arm light chain 2B5 (AC29)) heavy: not shown light 1: QSALTQPASVSGSPGQSITISCTGTSSDVEFTNGVSWYQQHPGKAPKLMIYGFSSRPSGVSNRFSGSKSGNTASLTISGLQAEDEADYYCSSYDPPWHLLARVFGGGTKLTVLGQPKAAPSVTLFPPSSEELQANKATLVCLISDFYPGAVTVAWKADSSPVKAGVETTTPSKQSNNKYAASSYLSLTPEQWKSHRSYSCQVTHEGSTVEKTVAPTECS light 2: not shown | 
